Data on 32 sequences can be found in the Immune Epitope Database (IEDB).

For assay [1], the target named is HLA-A*26:01. The experiment in a line: IEDB peptide-MHC binding, purified MHC/competitive/fluorescence; filed as Kd, often an IC50 or EC50 that approximates it; ≥ and ≤ were set here for values at or beyond the usual limits of such assays.
The target of assay [2] is HLA-A*68:02. The experiment in a line: IEDB peptide-MHC binding, purified MHC/competitive/radioactivity; filed as Kd, often an IC50 or EC50 that approximates it; ≥ and ≤ were set here for values at or beyond the usual limits of such assays.
For assay [3], the target named is HLA-B*15:01. The assay is described as above.
In assay [4] the target is HLA-A*02:03. The assay is described as above.
Assay [5] has as its target HLA-A*02:01. The assay is described as above.
Assay [6] addresses HLA-A*02:02. Described as above.
The target in assay [7] is HLA-A*02:06. Described as above.
The target of assay [8] is HLA-A*02:01. In words: IEDB peptide-MHC binding, purified MHC/direct/fluorescence; filed as Kd, often an IC50 or EC50 that approximates it; ≥ and ≤ were set here for values at or beyond the usual limits of such assays. Conditions: source organism: Mammarenavirus lassaense.
In assay [9] the target is HLA-A*69:01. Described as above. The note with it: source organism: Mammarenavirus lassaense.
Assay [10] concerns the target HLA-A*03:01. The experiment in a line: IEDB peptide-MHC binding, purified MHC/competitive/radioactivity; filed as Kd, often an IC50 or EC50 that approximates it; ≥ and ≤ were set here for values at or beyond the usual limits of such assays. Conditions: source organism: Vaccinia virus WR.
In assay [11] the target is HLA-A*11:01. The description is as above. The note with it: source organism: Vaccinia virus WR.
For assay [12], the target named is HLA-A*31:01. The assay is described as above. Conditions: source organism: Vaccinia virus WR.
In assay [13] the target is HLA-A*33:01. Described as above. Conditions: source organism: Vaccinia virus WR.
In assay [14] the target is HLA-A*68:01. Described as above. Conditions: source organism: Vaccinia virus WR.
The target of assay [15] is HLA-B*07:02. The assay is described as above. The note with it: source organism: Vaccinia virus WR.
Assay [16] deals with HLA-B*35:01. Described as above. Conditions: source organism: Vaccinia virus WR.
Assay [17] concerns the target HLA-B*51:01. Described as above. Conditions: source organism: Vaccinia virus WR.
Assay [18] addresses HLA-B*53:01. The description is as above. Conditions: source organism: Vaccinia virus WR.
Assay [19] addresses HLA-B*54:01. The description is as above. The note with it: source organism: Vaccinia virus WR.
Assay [20] deals with HLA-A*01:01. The description is as above. The note with it: source organism: Dengue virus 3 Martinique/1243/1999.
The target of assay [21] is HLA-B*51:01. The experiment in a line: IEDB peptide-MHC binding, purified MHC/competitive/fluorescence; filed as Kd, often an IC50 or EC50 that approximates it; ≥ and ≤ were set here for values at or beyond the usual limits of such assays. Conditions: source organism: Yersinia pestis Nepal516.
Assay [22] addresses HLA-B*18:01. In words: IEDB peptide-MHC binding, purified MHC/competitive/radioactivity; filed as Kd, often an IC50 or EC50 that approximates it; ≥ and ≤ were set here for values at or beyond the usual limits of such assays.
For assay [23], the target named is HLA-B*40:01. The assay is described as above.
Assay [24] has as its target HLA-B*40:02. Described as above.
Assay [25] addresses HLA-B*44:02. The description is as above.
For assay [26], the target named is HLA-B*44:03. Described as above.
Assay [27] concerns the target HLA-B*45:01. Described as above.
Setting [28] is: source organism: Vaccinia virus WR.
The mark [29] stands for this setting: source organism: Dengue virus 4 Philippines/H241/1956.
Where [30] appears, read: source organism: Lassa virus GA391.
Setting [31] is: source organism: Hepatitis C virus (isolate BK).
The mark [32] stands for this setting: source organism: Lassa virus Josiah.
The mark [33] stands for this setting: source organism: Trypanosoma cruzi.
The mark [34] stands for this setting: source organism: Dengue virus 3 Martinique/1243/1999.
Setting [35] is: source organism: Mammarenavirus machupoense.
[36] abbreviates: source organism: SARS coronavirus Tor2.
Setting [37] is: source organism: Dengue virus 2 Jamaica/1409/1983.
[38] abbreviates: source organism: Mammarenavirus guanaritoense.
The mark [39] stands for this setting: source organism: Mammarenavirus whitewaterense.

Some results are limits rather than exact numbers.

DVADLFPAQ displayed an equilibrium dissociation constant (Kd) in assay [1] (source organism: Mammarenavirus lassaense) of 1780 nM.
For the sequence GVSWMIRILI, the Kd in [2] (source organism: Dengue virus 4 Dominica/814669/1981) stood at 197 nM.
LLKICIKYF: in assay [3] (setting [28]), the Kd was 5230 nM.
Consider NIHTAITQV, for which the Kd in assay [4] (setting [29]) is 26.1 nM; in [2] (setting [29]), 152 nM.
On to GVFYRPLHF, for which the Kd in assay [3] (setting [28]) amounted to 5.54 nM.
LLHGLDFSEV: the Kd is 65.8 nM in assay [5] (setting [30]); 117 nM in assay [6] (setting [30]); 3.57 nM in assay [4] (setting [30]); 71.2 nM in assay [7] (setting [30]); not below 5000 nM in assay [2] (setting [30]).
In the case of CVNGVCWTV, the Kd was 1020 nM in assay [5] (setting [31]); 1040 nM in [6] (setting [31]); 2080 nM in assay [4] (setting [31]); 2670 nM in assay [7] (setting [31]); 948 nM in [2] (setting [31]).
For FVFSTSFYL, the Kd in assay [8] was not above 1 nM; in assay [9], 1.2 nM; in assay [6] (setting [32]), 1.5 nM; in assay [4] (setting [32]), 51 nM; in [7] (setting [32]), 13.7 nM; in assay [2] (setting [32]) it was 0.508 nM.
As to IISSSTLYF, the Kd in assay [3] (source organism: Vaccinia virus Copenhagen) was 1.06 nM.
Consider RSQVGVGVF, for which the Kd in assay [3] (source organism: Dengue virus 1 Brazil/97-11/1997) came to 26 nM.
In [1] (source organism: Bacillus thuringiensis serovar israelensis ATCC 35646), NTIRNAASF registered a Kd of 73.5 nM.
ELLRPTTLV: the dissociation constant (Kd) amounted to 4030 nM in assay [6] (setting [33]), 1390 nM in assay [4] (setting [33]), 2080 nM in assay [7] (setting [33]) and 87 nM in assay [2] (setting [33]).
In the case of GLYCYFTHL, the Kd in [3] (setting [28]) came out at 6.87 nM.
Consider DLKDLEAHI, for which the Kd in assay [5] (source organism: Homo sapiens) was not below 83400 nM; in [7] (source organism: Homo sapiens), not below 109000 nM; in [2] (source organism: Homo sapiens), 17600 nM.
For the sequence ISTKLSCHY, in assay [3] (setting [28]), the Kd is 17.5 nM.
With RLQQELDDL, the Kd in [2] (source organism: Homo sapiens) was not below 125000 nM.
Take TLNHVLALK: the Kd in [5] (setting [28]) was not below 78100 nM; in [6] (setting [28]), not below 77800 nM; in [4] (setting [28]), 281 nM; in assay [7] (setting [28]), 14100 nM; in assay [10], 2.47 nM; in [11] it was 1.28 nM. The Kd in assay [12] was 36.1 nM; in [13], 656 nM; in [14], 4.17 nM; in assay [2] (setting [28]) it was not below 76900 nM; in [15] it was not below 77500 nM; in assay [16] it was 10400 nM. Further, the Kd is not below 77500 nM in [17], not below 78200 nM in [18] and not below 78100 nM in [19].
Regarding LTVAWRTATL, the Kd in [2] (setting [34]) worked out at 32.4 nM.
For YSIPATLLV, the Kd in assay [20] turned out to be 941 nM; in assay [7] (setting [34]) it was 10.2 nM; in assay [2] (setting [34]), 16.9 nM.
Take FANYGFTLA: the Kd is 1500 nM in assay [5] (setting [33]); 1980 nM in [6] (setting [33]); 46.2 nM in [4] (setting [33]); 0.447 nM in assay [7] (setting [33]); 1640 nM in [2] (setting [33]).
In the case of YLFNAIETM, the Kd in assay [3] (setting [28]) was found to be 1.41 nM.
In turn, LPFVWAPMV yielded a Kd in assay [21] of 39.9 nM.
In the case of EEVLDVCPLG, the Kd is 4840 nM in assay [22] (setting [35]); 14200 nM in [23] (setting [35]); 9750 nM in assay [24] (setting [35]); not below 70200 nM in [25] (setting [35]); not below 51100 nM in [26] (setting [35]); 4440 nM in assay [27] (setting [35]).
Consider IEYSDFATSA, for which the Kd in assay [22] (setting [36]) is 135 nM; in [23] (setting [36]), 16700 nM; in [24] (setting [36]), 147 nM; in assay [25] (setting [36]), 728 nM; in [26] (setting [36]) it was 658 nM; in assay [27] (setting [36]) it was 154 nM.
VVIAILTVV: the Kd in [4] (setting [37]) was found to be 33.8 nM; in [7] (setting [37]), 13.6 nM; in [2] (setting [37]), 347 nM.
For the sequence AEFTFQLNL, the Kd in [22] (setting [38]) is 5930 nM; in assay [23] (setting [38]) it was 66.1 nM; in assay [24] (setting [38]), 0.946 nM; in [25] (setting [38]), 59.9 nM; in assay [26] (setting [38]) it was 50.8 nM; in [27] (setting [38]), 210 nM.
As to NTYLFNILY, the Kd in [5] (setting [28]) was found to be 946 nM; in assay [6] (setting [28]) it was 1570 nM; in assay [4] (setting [28]), 1550 nM; in [7] (setting [28]), 6110 nM; in [10], 625 nM; in assay [11], 263 nM. For the same sequence, the Kd in assay [12] is 688 nM; in assay [13], 1480 nM; in assay [14], 722 nM; in [2] (setting [28]), 7350 nM; in [15], not below 29200 nM; in assay [16], 10500 nM. Further, the results for the Kd in [17], in assay [18] and in assay [19] were 17700 nM, 5690 nM and 1430 nM, respectively.
LPRPDTRHL: the Kd in assay [5] (setting [28]) is not below 78100 nM; in [6] (setting [28]), not below 77800 nM; in assay [4] (setting [28]) it was not below 78100 nM; in assay [7] (setting [28]), 18400 nM; in [10], not below 58200 nM; in [11], not below 77900 nM. Also, the Kd in assay [12] is not below 77900 nM; in [13], not below 77700 nM; in assay [14], not below 77700 nM; in assay [2] (setting [28]), not below 76900 nM.
Turning to QVMLLVLCV, the Kd in assay [2] (source organism: Dengue virus 2 Peru/IQT2913/1996) came to 143 nM.
For LLCKLSCAV, in [3] (setting [28]), the dissociation constant (Kd) turned out to be 416 nM.
For the sequence SDHLISEIL, the Kd in assay [22] (setting [39]) was not below 77500 nM; in [23] (setting [39]), 8520 nM; in [24] (setting [39]) it was 83.1 nM; in assay [25] (setting [39]) it was 9120 nM; in assay [26] (setting [39]), not below 78100 nM; in assay [27] (setting [39]), 1660 nM.
For the sequence DEWSVATFYL, the Kd in [22] (setting [36]) is 77.1 nM; in [23] (setting [36]) it was 1490 nM; in assay [24] (setting [36]), 119 nM; in assay [25] (setting [36]) it was 939 nM; in assay [26] (setting [36]) it was 356 nM; in assay [27] (setting [36]) it was 1010 nM.

As a reminder, the Kd is the equilibrium constant for the complex coming apart.
